Results as given in patent publication US8936785 (ESBATECH AN ALCON BIOMEDICAL RESEARCH UNIT, dated 2015).

Legend:
[1] = biological target: T1, TNFα (tumour necrosis factor alpha) (UniProt P01375 77-233, limits assumed); test: cell-based or functional assay
[2] = biological target: T1, TNFα (tumour necrosis factor alpha); test: cell-based or functional assay; remark: listed apart in the source

T1 sequence (P01375 77-233 limits assumed): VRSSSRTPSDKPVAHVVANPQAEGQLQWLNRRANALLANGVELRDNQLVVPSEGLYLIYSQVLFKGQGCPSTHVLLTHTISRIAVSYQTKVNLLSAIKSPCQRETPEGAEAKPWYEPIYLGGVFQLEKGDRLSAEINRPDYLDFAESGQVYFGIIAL

Binder	EC50 (read off the curve), L929 assay, ESBA105 stored 8 weeks at 37° C. (triangles, dashed line) [1] [ng/mL]	Relative potency: EC50X/EC50ESBA105, KYM-1 cells [2] [ratio EC50X/EC50ESBA105]	Relative potency: EC50X/EC50ESBA105, L929 cells [2] [ratio EC50X/EC50ESBA105]
ESBA105 (scFv) scFv: DIVMTQSPSSLSASVGDRVTLTCTASQSVSNDVVWYQQRPGKAPKLLIYSAFNRYTGVPSRFSGRGYGTDFTLTISSLQPEDVAVYYCQQDYNSPRTFGQGTKLEVKRGGGGSGGGGSGGGGSSGGGSQVQLVQSGAEVKKPGASVKVSCTASGYTFTHYGMNWVRQAPGKGLEWMGWINTYTGEPTYADKFKDRFTFSLETSASTVYMELTSLTSDDTAVYYCARERGDAMDYWGQGTLVTVSS	~10	1	1
ESBA105-H_F68A (scFv) scFv: DIVMTQSPSSLSASVGDRVTLTCTASQSVSNDVVWYQQRPGKAPKLLIYSAFNRYTGVPSRFSGRGYGTDFTLTISSLQPEDVAVYYCQQDYNSPRTFGQGTKLEVKRGGGGSGGGGSGGGGSSGGGSQVQLVQSGAEVKKPGASVKVSCTASGYTFTHYGMNWVRQAPGKGLEWMGWINTYTGEPTYADKFKDRATFSLETSASTVYMELTSLTSDDTAVYYCARERGDAMDYWGQGTLVTVSS			1.14
ESBA105-QC15.2 (scFv) scFv: DIVMTQSPSSLSASVGDRVTLTCTASQSVSNDVVWYQQRPGKAPKLLIYSAFNRYTGVPSRFSGRGYGTDFTLTISSLQPEDVAVYYCQQDYNSPRTFGQGTKLEVKRGGGGSGGGGSGGGGSSGGGSQVQLVQSGAEVKKPGASVKVSCTASGYTFTHYGMNWVRQAPGRGLEWMGWINTYTGEPTYADKFKDRITFSLETSASTVYMELTSLTSDDTAVYYCARERGDAMDYWGQGTLVTVSS		1.5	1.37
